# Experimental data: patent US6716813B2, “Use of antimicrobial proteins and peptides for the treatment of otitis media and paranasal sinusitis” (priority 2000, dated 2004)
# Assays:
# [1] = system: NTHi strain12; format: cell-based, nontypeable Haemophilus influenzae; conditions: 100 mM NaCl in gel
# Protocol: (§1) The bacteria used in the following examples were cultured as follows: Stocks of NTHi12 and M. catarrhalis […] (generous gift of Dr. Xin-Xing Gu) were maintained at -80° C. For experiments, the bacteria were plated on chocolate agar and incubated overnight at 37° C. in 5% CO2. A single colony was then picked and transferred to 10 ml of brain heart infusion (BHI, Becton Dickinson, Cockeysville, Md.), supplemented with hemin (10 μg/ml, Sigma, St. Louis, Mo.) and NAD (10 μg/ml, Sigma, St. Louis, Mo.), and allowed to grow overnight. In the morning, 1/10 volume of the overnight culture was transferred to fresh medium and incubated for 3-hours. The subculture was then washed twice with 10 mM sodium phosphate and the O.D. at 620 nm was determined. For the S. pneumoniae serotypes 3 and 6B (generous gift of Dr. Xin-Xing Gu), a 50 μl aliquot of the -80° C. stock was thawed on ice, added to 10 ml of Todd-Hewitt broth (THB, Becton Dickinson, Cockeysville, Md.) and cultured overnight. […] The subculture was then washed twice with 10 mM sodium phosphate and the O.D. at 620 nm was determined. […] The diameter of the zones of inhibition produced by each of the antimicrobial molecules against the OM pathogens (NTHi, M. catarrhalis and S. pneumoniae) was then measured in three separate experiments and the average and standard deviation were calculated. […]
# [2] = system: M. catarrhalis strain 035E; format: cell-based, Moraxella catarrhalis; conditions: 100 mM NaCl in gel
# Protocol: as §1
# [3] = system: S. pneumoniae serotype 3; format: cell-based, Streptococcus pneumoniae
# Protocol: (§2) The bacteria used in the following examples were cultured as follows: Stocks of NTHi12 and M. catarrhalis […] (generous gift of Dr. Xin-Xing Gu) were maintained at -80° C. For experiments, the bacteria were plated on chocolate agar and incubated overnight at 37° C. in 5% CO2. A single colony was then picked and transferred to 10 ml of brain heart infusion (BHI, Becton Dickinson, Cockeysville, Md.), supplemented with hemin (10 μg/ml, Sigma, St. Louis, Mo.) and NAD (10 μg/ml, Sigma, St. Louis, Mo.), and allowed to grow overnight. In the morning, 1/10 volume of the overnight culture was transferred to fresh medium and incubated for 3-hours. The subculture was then washed twice with 10 mM sodium phosphate and the O.D. at 620 nm was determined. For the S. pneumoniae serotypes 3 and 6B (generous gift of Dr. Xin-Xing Gu), a 50 μl aliquot of the -80° C. stock was thawed on ice, added to 10 ml of Todd-Hewitt broth (THB, Becton Dickinson, Cockeysville, Md.) and cultured overnight. One tenth of the volume of the overnight culture was then transferred to fresh medium and incubated for 3-hours. The subculture was then washed twice with 10 mM sodium phosphate and the O.D. at 620 nm was determined. The radial assay method of […] and coworkers was used, with minor modifications ([…] et al., 1991). The subcultured bacteria (4×10^6 CFU/10 ml underlay gel) were mixed with melted underlay gel at 42° C. (0.1×culture broth-BHI for NTHi and Moraxella and THB for S. pneumoniae-10 mM sodium phosphate, 0.8% low electroendosmosis (EEO)-type agarose) and poured into 8 cm×8 cm square petri plates. The gel was allowed to solidify in the petri plates and wells were punched out with a calibrated 200 μl micropipette tip, cut off at the 50 μl mark (approximately 3 mm). The antimicrobial peptides and proteins were dissolved in 0.01% acetic acid and 4 μl was added to each well. The plates were then incubated for 3 hours at 37° C. in the 5% CO2 incubator. They were next overlaid with the overlay gel (0.5×culture broth, 10 mM sodium phosphate, 0.8% low EEO-type agarose) and covered. The plates were then allowed to incubate overnight at 37° C. in a 5% CO2. The diameter of the zones of inhibition produced by each of the antimicrobial molecules against the OM pathogens (NTHi, M. catarrhalis and S. pneumoniae) was then measured in three separate experiments and the average and standard deviation were calculated. Physiologically, salt concentrations vary depending on the site. However, typically they can be as high as 150 mM. Thus, the salt sensitivity of the antimicrobial molecules was tested. NaCl was added to the gel in Example 2 to obtain a final concentration of 100 mM.
# [4] = system: S. pneumoniae serotype 6B; format: cell-based, Streptococcus pneumoniae
# Protocol: as §2
molecule,measurement,setting,value
"lactoferrin (protein, UniProt P02788 20-710, looked up) Lactotransferrin: GRRRSVQWCAVSQPEATKCFQWQRNMRKVRGPPVSCIKRDSPIQCIQAIAENRADAVTLDGGFIYEAGLAPYKLRPVAAEVYGTERQPRTHYYAVAVVKKGGSFQLNELQGLKSCHTGLRRTAGWNVPIGTLRPFLNWTGPPEPIEAAVARFFSASCVPGADKGQFPNLCRLCAGTGENKCAFSSQEPYFSYSGAFKCLRDGAGDVAFIRESTVFEDLSDEAERDEYELLCPDNTRKPVDKFKDCHLARVPSHAVVARSVNGKEDAIWNLLRQAQEKFGKDKSPKFQLFGSPSGQKDLLFKDSAIGFSRVPPRIDSGLYLGSGYFTAIQNLRKSEEEVAARRARVVWCAVGEQELRKCNQWSGLSEGSVTCSSASTTEDCIALVLKGEADAMSLDGGYVYTAGKCGLVPVLAENYKSQQSSDPDPNCVDRPVEGYLAVAVVRRSDTSLTWNSVKGKKSCHTAVDRTAGWNIPMGLLFNQTGSCKFDEYFSQSCAPGSDPRSNLCALCIGDEQGENKCVPNSNERYYGYTGAFRCLAENAGDVAFVKDVTVLQNTDGNNNEAWAKDLKLADFALLCLDGKRKPVTEARSCHLAMAPNHAVVSRMDKVERLKQVLLHQQAKFGRNGSDCPDKFCLFQSETKNLLFNDNTECLARLHGKTTYEKYLGPQYVAGITNLKKCSTSPLLEACEFLRK",effect of salt on the growth inhibitory effect against NTHi,[1],completely blocked
same,effect of salt on the growth inhibitory effect against M. catarrhalis,[2],completely blocked
same,effect on growth of S. pneumoniae serotype 3,"[3]; 10 μg, equivalent to 2.5 mg/ml",enhancement of the growth
same,effect of salt on the growth inhibitory effect against S. pneumoniae serotype 3,[3]; 100 mM NaCl in gel,completely blocked
same,effect of salt on the growth inhibitory effect against S. pneumoniae serotype 6B,[4]; 100 mM NaCl in gel,completely blocked
same,effect on growth of S. pneumoniae serotype 6B,"[4]; 10 and 40 μg, equivalent to 2.5 and 10 mg/ml",enhancement of the growth
